Test results published in patent US20060123518A1, “Methods for culturing cereal endosperm” (Pioneer Hi-Bred International, Inc., priority 2004, published 2006).

Test system: aleurone cell development
Test: Chemical genetics with in vitro cultured endosperm expressing Ltp2-driven ZsYellow in aleurone cells
Type: cell-based, maize
Details: in vitro endosperm cultures in liquid proliferation medium, 96 well plates; predicted result
Experimental: In vitro cultured endosperm produced by the methods of the present invention and that express the ZsYellow fluorescent protein in aleurone cells under the control of the Ltp2 promoter are plated in 96 well microtiter plates with one endosperm added per well in liquid proliferation medium. To each well, a candidate chemical to be evaluated is added. The effect of the chemical on aleurone cell development is evaluated, for example, as the loss of aleurone cell identity as detected as lack of yellow fluorescence, either on the whole surface of the in vitro cultured endosperm or in patches on the surface. For example, a chemical genetics approach can be used to assess the function of the Dek1 gene product. The defective kernel 1 (dek1) gene is required for aleurone cell development in the endosperm of maize grains and this gene encodes a membrane protein of the calpain gene superfamily (Lid et al. (2002) Proc. Natl. Acad. Sci. USA. 99(8):5460-5465). Using mutant sector analysis, it has been shown that, if an aleurone cell looses the Dek1 gene function, the cell loses its aleurone cell identity and converts to a starchy endosperm cell fate (Becraft et al. (2000) Development 127:4039-4048). n this example, in vitro endosperm cultures are exposed to the calpain inhibitor calpastatin by the method described above.

B1: calpastatin (protein, UniProt P20810 1-708, looked up)
Calpastatin: MNPTETKAIPVSQQMEGPHLPNKKKHKKQAVKTEPEKKSQSTKLSVVHEKKSQEGKPKEHTEPKSLPKQASDTGSNDAHNKKAVSRSAEQQPSEKSTEPKTKPQDMISAGGESVAGITAISGKPGDKKKEKKSLTPAVPVESKPDKPSGKSGMDAALDDLIDTLGGPEETEEENTTYTGPEVSDPMSSTYIEELGKREVTIPPKYRELLAKKEGITGPPADSSKPIGPDDAIDALSSDFTCGSPTAAGKKTEKEESTEVLKAQSAGTVRSAAPPQEKKRKVEKDTMSDQALEALSASLGTRQAEPELDLRSIKEVDEAKAKEEKLEKCGEDDETIPSEYRLKPATDKDGKPLLPEPEEKPKPRSESELIDELSEDFDRSECKEKPSKPTEKTEESKAAAPAPVSEAVCRTSMCSIQSAPPEPATLKGTVPDDAVEALADSLGKKEADPEDGKPVMDKVKEKAKEEDREKLGEKEETIPPDYRLEEVKDKDGKPLLPKESKEQLPPMSEDFLLDALSEDFSGPQNASSLKFEDAKLAAAISEVVSQTPASTTQAGAPPRDTSQSDKDLDDALDKLSDSLGQRQPDPDENKPMEDKVKEKAKAEHRDKLGERDDTIPPEYRHLLDDNGQDKPVKPPTKKSEDSKKPADDQDPIDALSGDLDSCPSTTETSQNTAKDKCKKAASSSKAPKNGGKAKDSAKTTEETSKPKDD
- effect on aleurone cell identity (yellow fluorescence on endosperm surface): lack of fluorescence in spot on the surface
